From patent US20220306744A1 (CRESCENDO BIOLOGICS, published 2022)
Blank lines part the entries; values can stand above or below the binder they belong to.

Columns and labels:
[1] = target: T1, human PD-1 expressed on cells (CHO TREX human PD1 cell line, full-length human PD-1 sequence) (human, UniProt Q15116 21-288); assay: epitope competition assay on CHO human PD1 cells (labelled VH not specified) after 1 day in mouse serum
T1 construct: Also used for human PD-1 on Jurkat reporter cells, on PathHunter cells and on PHA-stimulated human CD4+ T cells; also called CHO human PD1 cells; CHO human PD-1 cells
T1 sequence (Q15116 21-288): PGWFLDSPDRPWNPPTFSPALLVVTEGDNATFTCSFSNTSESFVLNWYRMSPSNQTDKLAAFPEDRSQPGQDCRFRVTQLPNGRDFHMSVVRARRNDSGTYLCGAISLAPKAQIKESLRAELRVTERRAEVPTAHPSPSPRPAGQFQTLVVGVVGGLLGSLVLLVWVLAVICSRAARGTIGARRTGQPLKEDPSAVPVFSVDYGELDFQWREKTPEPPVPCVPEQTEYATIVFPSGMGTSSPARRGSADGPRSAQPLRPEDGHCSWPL
Description: (§1) Serum stability of VH and multivalent VH constructs was assessed by measurement of their activity following incubation for 0, 1, 4 or 7 days both in mouse (Sigma M5905) and human serum. […] Minimal loss of activity was observed following incubation with serum.

[2] = target: T1, human PD-1 expressed on cells (CHO TREX …); assay: epitope competition assay on CHO human PD1 cells (labelled VH 1.51a, 1.57b or 1.1a, not specified) after 0 days in human serum
[3] = target: T1, human PD-1 expressed on cells (CHO TREX …); assay: epitope competition assay on CHO human PD1 cells (labelled VH not specified) after 4 days in mouse serum
Description: as §1

[4] = target: T1, human PD-1 expressed on cells (CHO TREX …); assay: epitope competition assay on CHO human PD1 cells (labelled VH not specified) after 0 days in human serum

IC50 [1]: 1.3 nM
IC50 [2]: 0.9 nM
IC50 [3]: 1.6 nM
B1: 1.92b-4GS-1.39a (other)
chain: EVQLVESGGGLVKPGGSLRLSCAASGFTFSDESMTWMRQAPGKGLEWVSYISSGGGVKFYADSVKGRFTISRDNAKNSLYLQMNSLRAEDTAVYYCAREAPLRLGESPHDAFDISGQGTMVTVSSGGGGSGGGGSGGGGSGGGGSEVQLVESGGGLVQPGRSLRLSCAASGFTFDDYALHWVRQAPGKDLEWVSGISWNGGSYGYADSVKGRFTISRDNAKNSLYLQMNSLRAEDTALYYCVREKGPGLTGSTADYYGLDAWGQGTMVTVSS
notes: Biparatopic VH-linker-VH; built from its parts here because it is not clear whether 1112 is the protein or the nucleic acid

IC50 [1]: 2 nM
IC50 [4]: 1.4 nM
IC50 [3]: 1.8 nM
B2: 1.92b-4GS-1.62a (other)
chain: EVQLVESGGGLVKPGGSLRLSCAASGFTFSDESMTWMRQAPGKGLEWVSYISSGGGVKFYADSVKGRFTISRDNAKNSLYLQMNSLRAEDTAVYYCAREAPLRLGESPHDAFDISGQGTMVTVSSGGGGSGGGGSGGGGSGGGGSEVQLVESGGGVVRPGGSLRLSCAASGFTFDDYAMSWVRQAPGKGLEWVSGITWNAGSTGYADSVKGRFTISRDNAKNSLYLQMNSLRAEDTALYYCVRDKYSYAWSYDDFDIWGQGTMVTVSS
notes: Biparatopic VH-linker-VH; also called 1.92-4GS-1.62a; 1.92b-4gs-2.12a
